Source: US20220348620A1 (WISTAR INSTITUTE OF ANATOMY AND BIOLOGY, published 2022)

Columns and labels:
[1] = target: T1, hexokinase-II (HK-II), endogenous in PC3 cells (human, UniProt P52789 1-917); test: affinity chromatography of PC3 cell extracts on beads-coupled MFF peptide #8, Western blot of bound proteins
T1 sequence (looked up): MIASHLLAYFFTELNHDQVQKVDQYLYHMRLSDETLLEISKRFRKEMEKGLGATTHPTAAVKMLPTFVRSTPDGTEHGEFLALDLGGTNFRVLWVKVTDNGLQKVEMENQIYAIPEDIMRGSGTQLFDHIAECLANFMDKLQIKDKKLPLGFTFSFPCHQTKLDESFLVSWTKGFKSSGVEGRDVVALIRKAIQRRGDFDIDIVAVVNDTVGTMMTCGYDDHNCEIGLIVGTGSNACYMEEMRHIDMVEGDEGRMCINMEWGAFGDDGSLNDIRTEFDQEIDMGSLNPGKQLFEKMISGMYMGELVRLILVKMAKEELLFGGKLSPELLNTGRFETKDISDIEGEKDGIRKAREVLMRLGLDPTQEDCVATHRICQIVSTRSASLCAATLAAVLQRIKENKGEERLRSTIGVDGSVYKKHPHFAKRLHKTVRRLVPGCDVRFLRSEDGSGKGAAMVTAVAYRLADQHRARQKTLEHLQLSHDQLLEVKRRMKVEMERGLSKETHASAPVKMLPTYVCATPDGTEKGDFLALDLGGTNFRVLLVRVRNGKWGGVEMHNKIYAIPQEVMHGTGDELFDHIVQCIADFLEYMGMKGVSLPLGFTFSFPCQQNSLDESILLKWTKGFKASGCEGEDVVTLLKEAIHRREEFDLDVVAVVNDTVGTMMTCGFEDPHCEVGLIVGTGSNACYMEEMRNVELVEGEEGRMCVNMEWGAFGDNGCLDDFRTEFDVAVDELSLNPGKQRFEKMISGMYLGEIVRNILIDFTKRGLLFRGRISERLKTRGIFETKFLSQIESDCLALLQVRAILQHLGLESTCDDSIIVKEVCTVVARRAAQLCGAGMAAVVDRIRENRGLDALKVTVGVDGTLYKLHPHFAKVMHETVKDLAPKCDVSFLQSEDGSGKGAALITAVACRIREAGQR

[2] = target: T2, VDAC1 (endogenous, in PC3 cell extracts) (human, UniProt P21796 2-283); test: as above
T2 construct: also called voltage-dependent anion channel-1

[3] = target: T3, hexokinase-I (HK-I), endogenous in PC3 cells (human, UniProt P19367 1-917); test: as above
T3 sequence (looked up): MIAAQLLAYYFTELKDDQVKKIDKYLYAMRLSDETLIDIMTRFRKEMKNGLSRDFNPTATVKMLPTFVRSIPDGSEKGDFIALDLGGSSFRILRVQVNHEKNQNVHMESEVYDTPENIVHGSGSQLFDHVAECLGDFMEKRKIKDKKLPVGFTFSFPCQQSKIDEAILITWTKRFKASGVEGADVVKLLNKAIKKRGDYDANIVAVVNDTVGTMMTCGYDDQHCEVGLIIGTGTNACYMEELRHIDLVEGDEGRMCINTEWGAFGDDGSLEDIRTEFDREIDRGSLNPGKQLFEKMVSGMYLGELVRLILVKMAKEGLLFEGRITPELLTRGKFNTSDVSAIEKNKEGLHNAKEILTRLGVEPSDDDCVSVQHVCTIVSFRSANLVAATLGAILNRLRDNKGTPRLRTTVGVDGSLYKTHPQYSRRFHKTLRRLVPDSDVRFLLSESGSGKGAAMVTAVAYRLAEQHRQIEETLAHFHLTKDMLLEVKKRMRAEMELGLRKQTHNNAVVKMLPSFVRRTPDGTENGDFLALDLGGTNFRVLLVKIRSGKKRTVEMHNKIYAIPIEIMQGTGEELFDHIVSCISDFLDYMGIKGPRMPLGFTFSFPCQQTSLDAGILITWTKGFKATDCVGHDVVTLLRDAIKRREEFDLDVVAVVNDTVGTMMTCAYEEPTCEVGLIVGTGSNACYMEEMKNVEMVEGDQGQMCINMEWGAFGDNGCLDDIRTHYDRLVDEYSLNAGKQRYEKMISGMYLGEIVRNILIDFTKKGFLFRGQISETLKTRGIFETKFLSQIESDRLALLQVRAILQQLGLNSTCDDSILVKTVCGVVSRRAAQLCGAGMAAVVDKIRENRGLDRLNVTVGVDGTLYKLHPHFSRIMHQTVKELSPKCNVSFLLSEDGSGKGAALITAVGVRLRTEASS

[4] = target: T4, recombinant full length human VDAC1 (hVDAC1) (human, UniProt P21796 1-283); test: isothermal titration calorimetry, 100 µM peptide injected into 10 µM hVDAC1, 20 °C
T4 construct: domain: full length; also called human recombinant VDAC; recombinant VDAC1

[5] = target: T4, recombinant full length human VDAC1 …; test: isothermal titration calorimetry, peptide injected into human recombinant VDAC
[6] = target: T1, hexokinase-II (HK-II), endogenous in …; test: co-immunoprecipitation with anti-Flag from transfected PC3 cells, Western blot and densitometry (AU)
[7] = target: T4, recombinant full length human VDAC1 …; test: isothermal titration calorimetry, scrambled peptide injected into human recombinant VDAC
[8] = target: Dynamin-Related Protein-1 (Drp1), endogenous in PC3 cells (human, UniProt O00429 1-736, limits assumed); test: co-immunoprecipitation with anti-Flag from PC3 cells, Western blot
[9] = target: T2, VDAC1 (endogenous, in PC3 cell extracts); test: as above
[10] = target: T3, hexokinase-I (HK-I), endogenous in PC3 …; test: as above

T4 sequence (P21796 whole entry): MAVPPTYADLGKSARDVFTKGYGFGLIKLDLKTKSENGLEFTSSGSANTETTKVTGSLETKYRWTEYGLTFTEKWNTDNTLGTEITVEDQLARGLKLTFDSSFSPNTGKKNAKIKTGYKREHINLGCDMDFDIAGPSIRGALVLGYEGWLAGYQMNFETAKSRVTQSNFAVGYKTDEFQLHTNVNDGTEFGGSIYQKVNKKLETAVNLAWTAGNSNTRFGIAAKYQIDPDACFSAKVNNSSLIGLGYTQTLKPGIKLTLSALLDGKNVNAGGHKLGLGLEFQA
T2 sequence (P21796 2-283 limits assumed): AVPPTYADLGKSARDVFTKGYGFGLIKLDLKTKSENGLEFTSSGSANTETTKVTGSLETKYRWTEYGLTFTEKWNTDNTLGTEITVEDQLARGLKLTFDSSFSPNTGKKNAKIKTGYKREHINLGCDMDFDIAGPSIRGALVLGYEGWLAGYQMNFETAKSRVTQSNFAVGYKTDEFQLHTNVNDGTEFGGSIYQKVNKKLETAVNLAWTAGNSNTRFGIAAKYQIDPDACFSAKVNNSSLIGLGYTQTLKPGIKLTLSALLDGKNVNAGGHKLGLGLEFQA
Dynamin-Related Protein-1 (Drp1), endogenous in PC3 cells, sequence (O00429 whole entry): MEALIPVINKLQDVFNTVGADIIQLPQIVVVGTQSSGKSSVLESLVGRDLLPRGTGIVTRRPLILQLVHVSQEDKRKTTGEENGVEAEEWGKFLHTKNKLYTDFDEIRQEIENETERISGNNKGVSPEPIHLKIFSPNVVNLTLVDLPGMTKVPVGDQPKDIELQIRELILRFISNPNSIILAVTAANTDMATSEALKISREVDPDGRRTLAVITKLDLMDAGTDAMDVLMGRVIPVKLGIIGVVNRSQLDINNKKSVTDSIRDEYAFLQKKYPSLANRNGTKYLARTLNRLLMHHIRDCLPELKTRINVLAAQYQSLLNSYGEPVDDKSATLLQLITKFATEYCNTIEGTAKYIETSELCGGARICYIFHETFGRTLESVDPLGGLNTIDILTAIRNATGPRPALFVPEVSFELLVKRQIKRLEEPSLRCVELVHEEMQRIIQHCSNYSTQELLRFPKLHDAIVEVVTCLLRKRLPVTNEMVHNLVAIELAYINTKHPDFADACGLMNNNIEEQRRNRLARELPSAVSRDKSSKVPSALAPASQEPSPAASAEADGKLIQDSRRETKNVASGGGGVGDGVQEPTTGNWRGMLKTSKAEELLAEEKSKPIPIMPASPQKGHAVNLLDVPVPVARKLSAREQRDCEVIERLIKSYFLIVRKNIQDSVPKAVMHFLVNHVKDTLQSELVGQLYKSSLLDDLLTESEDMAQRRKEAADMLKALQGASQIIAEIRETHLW

DGANLSSARGILSLIQSSTRRAYQQILDVL (also called MFF #8) [MFF peptide #8 (Asp217-Leu246 of MFF1)]: binds [1]; binds [2]; binds [3].

B1: MFF peptide #8-11 (Ser223-Leu243 of MFF1), wild type (peptide)
peptide: SARGILSLIQSSTRRAYQQIL
notes: Plain synthetic peptide (not the cell-permeable form) as used in ITC; also called WT MFF peptide #8-11; MFF (L) peptide #8-11
B1 showed a Kd [4] of about 12 µM and a Kd [5] of 12 µM.

B2: Flag-MFF1 Q241A (other, not shown: small tags and cut ends)
chain: MSKGTSSDTSLGRVSRAAFPSPTAAEMAEISRIQYEMEYTEGISQRMRVPEKLKVAPPNADLEQGFQEGVPNASVIMQVPERIVVAGNNEDVSFSRPADLDLIQSTPFKPLALKTPPRVLTLSERPLDFLDLERPPTTPQNEEIRAVGRLKRERSMSENAVRQNGQLVRNDSLWHRSDSAPRNKISRFQAPISAPEYTVTPSPQQARVCPPHMLPEDGANLSSARGILSLIQSSTRRAYQAILDVLDENRRPVLRGGSAAATSNPHHDNVRYGISNIDTTIEGTSDDLTVVDAASLRRQIIKLNRRLQLLEEENKERAKREMVMYSITVAFWLLNSWLWFRR
notes: also called mutant Flag-MFF Q241A
B2: binds [6].

B3: Flag-MFF1 R225D (other, not shown: small tags and cut ends)
chain: MSKGTSSDTSLGRVSRAAFPSPTAAEMAEISRIQYEMEYTEGISQRMRVPEKLKVAPPNADLEQGFQEGVPNASVIMQVPERIVVAGNNEDVSFSRPADLDLIQSTPFKPLALKTPPRVLTLSERPLDFLDLERPPTTPQNEEIRAVGRLKRERSMSENAVRQNGQLVRNDSLWHRSDSAPRNKISRFQAPISAPEYTVTPSPQQARVCPPHMLPEDGANLSSADGILSLIQSSTRRAYQQILDVLDENRRPVLRGGSAAATSNPHHDNVRYGISNIDTTIEGTSDDLTVVDAASLRRQIIKLNRRLQLLEEENKERAKREMVMYSITVAFWLLNSWLWFRR
notes: also called mutant Flag-MFF R225D
B3: binds [6].

B4: Flag-MFF1 R236D (other, not shown: small tags and cut ends)
chain: MSKGTSSDTSLGRVSRAAFPSPTAAEMAEISRIQYEMEYTEGISQRMRVPEKLKVAPPNADLEQGFQEGVPNASVIMQVPERIVVAGNNEDVSFSRPADLDLIQSTPFKPLALKTPPRVLTLSERPLDFLDLERPPTTPQNEEIRAVGRLKRERSMSENAVRQNGQLVRNDSLWHRSDSAPRNKISRFQAPISAPEYTVTPSPQQARVCPPHMLPEDGANLSSARGILSLIQSSTDRAYQQILDVLDENRRPVLRGGSAAATSNPHHDNVRYGISNIDTTIEGTSDDLTVVDAASLRRQIIKLNRRLQLLEEENKERAKREMVMYSITVAFWLLNSWLWFRR
notes: also called mutant Flag-MFF R236D
B4: binds [6].

B5: scrambled variant of MFF peptide 8#11 (peptide)
peptide: SSQLRYLARSQRITIQLIAGS
notes: Control peptide in ITC; also called MFF scrambled peptide
B5: no binding (tested: molar ratio about 2) [7].

B6: Flag-MFF2 (other, human, UniProt Q9GZY8-2 1-291, looked up)
chain: MAEISRIQYEMEYTEGISQRMRVPEKLKVAPPNADLEQGFQEGVPNASVIMQVPERIVVAGNNEDVSFSRPADLDLIQSTPFKPLALKTPPRVLTLSERPLDFLDLERPPTTPQNEEIRAVGRLKRERSMSENAVRQNGQLVRNDSLVTPSPQQARVCPPHMLPEDGANLSSARGILSLIQSSTRRAYQQILDVLDENRRPVLRGGSAAATSNPHHDNVRYGISNIDTTIEGTSDDLTVVDAASLRRQIIKLNRRLQLLEEENKERAKREMVMYSITVAFWLLNSWLWFRR
notes: not shown: Flag tag
B6: no binding [8].

B7: Flag-MFF5 (other, human, UniProt Q9GZY8-5 1-238, looked up)
chain: MAEISRIQYEMEYTEGISQRMRVPEKLKVAPPNADLEQGFQEGVPNASVIMQVPERIVVAGNNEDVSFSRPADLDLIQSTPFKPLALKTPPRVLTLSERPLDFLDLERPPTTPQNEEIRAVGRLKRERSMSENAVRQNGQLVRNDSLPVLRGGSAAATSNPHHDNVRYGISNIDTTIEGTSDDLTVVDAASLRRQIIKLNRRLQLLEEENKERAKREMVMYSITVAFWLLNSWLWFRR
notes: also called Flag-MIFFS (misprint in legend); not shown: Flag tag
B7: no binding [9]; no binding [10].
